T1: LIN7A, O14910
T1 sequence (O14910 103-200, limits assumed, looked up): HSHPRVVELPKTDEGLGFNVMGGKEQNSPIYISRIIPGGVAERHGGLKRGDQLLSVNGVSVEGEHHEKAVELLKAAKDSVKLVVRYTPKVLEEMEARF

T2: LNX2_2, Q8N448
T2 sequence (Q8N448 334-432, limits assumed, looked up): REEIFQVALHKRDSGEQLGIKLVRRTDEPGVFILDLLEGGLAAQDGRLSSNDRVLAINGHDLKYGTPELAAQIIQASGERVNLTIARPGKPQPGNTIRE

T3: NHERF3_4, Q5T2W1
T3 sequence (Q5T2W1 373-468, limits assumed, looked up): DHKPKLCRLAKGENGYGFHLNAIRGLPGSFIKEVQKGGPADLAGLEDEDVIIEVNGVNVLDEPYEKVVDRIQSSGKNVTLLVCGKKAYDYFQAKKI

T4: HTRA4, P83105
T4 sequence (P83105 378-476, limits assumed, looked up): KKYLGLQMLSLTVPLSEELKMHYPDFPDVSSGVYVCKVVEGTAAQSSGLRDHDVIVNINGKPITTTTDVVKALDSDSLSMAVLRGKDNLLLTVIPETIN

T5: TX1BP3, O14907
T5 sequence (O14907 10-122, limits assumed, looked up): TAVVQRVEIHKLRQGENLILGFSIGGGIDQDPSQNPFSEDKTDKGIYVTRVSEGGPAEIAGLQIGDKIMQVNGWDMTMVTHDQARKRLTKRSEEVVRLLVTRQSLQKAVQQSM

T6: MPP2, Q14168
T6 sequence (Q14168 180-250, limits assumed, looked up): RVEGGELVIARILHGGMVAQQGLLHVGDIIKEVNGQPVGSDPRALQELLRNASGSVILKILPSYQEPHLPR

T7: GRIP1_7, Q9Y3R0
T7 sequence (Q9Y3R0 999-1096, limits assumed, looked up): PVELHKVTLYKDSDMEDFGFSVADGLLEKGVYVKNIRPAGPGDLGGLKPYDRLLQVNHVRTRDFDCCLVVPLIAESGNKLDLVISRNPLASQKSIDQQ

T8: PCLO, Q9Y6V0
T8 sequence (Q9Y6V0 4491-4600, limits assumed, looked up): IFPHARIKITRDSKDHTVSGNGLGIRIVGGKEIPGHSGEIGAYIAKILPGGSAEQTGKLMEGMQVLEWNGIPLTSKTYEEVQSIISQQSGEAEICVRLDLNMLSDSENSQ

T9: DFNB31_2, Q9P202
T9 sequence (Q9P202 274-371, limits assumed, looked up): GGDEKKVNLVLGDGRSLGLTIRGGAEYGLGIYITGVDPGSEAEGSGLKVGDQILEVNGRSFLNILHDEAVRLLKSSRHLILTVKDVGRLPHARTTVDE

T10: APBA2_2, Q99767
T10 sequence (Q99767 654-744, limits assumed, looked up): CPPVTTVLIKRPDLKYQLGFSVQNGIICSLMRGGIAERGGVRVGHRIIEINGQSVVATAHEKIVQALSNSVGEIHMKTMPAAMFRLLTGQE

T11: MPDZ_10, O75970
T11 sequence (O75970 1624-1722, limits assumed, looked up): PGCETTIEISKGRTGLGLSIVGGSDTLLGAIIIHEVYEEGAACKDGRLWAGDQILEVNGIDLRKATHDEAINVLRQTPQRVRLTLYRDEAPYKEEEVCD

T12: RADIL, Q96JH8
T12 sequence (Q96JH8 971-1071, limits assumed, looked up): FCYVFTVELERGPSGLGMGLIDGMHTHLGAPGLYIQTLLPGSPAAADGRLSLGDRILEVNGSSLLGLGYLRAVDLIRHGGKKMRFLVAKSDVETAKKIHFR


molecular target: MAGI1_1, Q96QZ7; experiment: holdup assay; parameters: key: below the threshold = too weak to quantify, mostly under pKd 3.1 to 4; settings: plain residues with an end cap or a label only (N-terminal biotin on a linker: ado-ado)
Sequence (Q96QZ7 1-106): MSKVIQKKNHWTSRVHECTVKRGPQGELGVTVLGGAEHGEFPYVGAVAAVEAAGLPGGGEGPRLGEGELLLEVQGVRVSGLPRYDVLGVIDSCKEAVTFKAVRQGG

| pKd | Binder |
| --- | --- |
| below the threshold | EAVTVESTSL [SLC22A11, Q9NSA0] |

molecular target: T1, LIN7A, O14910; experiment: holdup assay; parameters: key: below the threshold = too weak to quantify, mostly under pKd 3.1 to 4; settings: plain residues with an end cap or a label only (N-terminal biotin on a linker: ado-ado)

| pKd | Binder |
| --- | --- |
| below the threshold | EAVTVESTSL [SLC22A11, Q9NSA0] |

molecular target: T2, LNX2_2, Q8N448; experiment: holdup assay; parameters: key: below the threshold = too weak to quantify, mostly under pKd 3.1 to 4; settings: plain residues with an end cap or a label only (N-terminal biotin on a linker: ado-ado)

| pKd | Binder |
| --- | --- |
| 3.67 | EAVTVESTSL [SLC22A11, Q9NSA0] |

molecular target: T3, NHERF3_4, Q5T2W1; experiment: holdup assay; parameters: key: below the threshold = too weak to quantify, mostly under pKd 3.1 to 4; settings: plain residues with an end cap or a label only (N-terminal biotin on a linker: ado-ado)

| pKd | Binder |
| --- | --- |
| 4.92 | EAVTVESTSL [SLC22A11, Q9NSA0] |

molecular target: FRMPD2_2, Q68DX3; experiment: holdup assay; parameters: key: below the threshold = too weak to quantify, mostly under pKd 3.1 to 4; settings: plain residues with an end cap or a label only (N-terminal biotin on a linker: ado-ado)
Sequence (Q68DX3 944-1038): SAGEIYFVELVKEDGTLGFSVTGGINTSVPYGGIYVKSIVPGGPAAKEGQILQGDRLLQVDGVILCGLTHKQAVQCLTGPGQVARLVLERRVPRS

| pKd | Binder |
| --- | --- |
| below the threshold | EAVTVESTSL [SLC22A11, Q9NSA0] |

molecular target: T4, HTRA4, P83105; experiment: holdup assay; parameters: key: below the threshold = too weak to quantify, mostly under pKd 3.1 to 4; settings: plain residues with an end cap or a label only (N-terminal biotin on a linker: ado-ado)

| pKd | Binder |
| --- | --- |
| below the threshold | EAVTVESTSL [SLC22A11, Q9NSA0] |

molecular target: T5, TX1BP3, O14907; experiment: holdup assay; parameters: key: below the threshold = too weak to quantify, mostly under pKd 3.1 to 4; settings: plain residues with an end cap or a label only (N-terminal biotin on a linker: ado-ado)

| pKd | Binder |
| --- | --- |
| 4.25 | EAVTVESTSL [SLC22A11, Q9NSA0] |

molecular target: TJP1_2, Q07157; experiment: holdup assay; parameters: key: below the threshold = too weak to quantify, mostly under pKd 3.1 to 4; settings: plain residues with an end cap or a label only (N-terminal biotin on a linker: ado-ado)
Sequence (Q07157 181-274): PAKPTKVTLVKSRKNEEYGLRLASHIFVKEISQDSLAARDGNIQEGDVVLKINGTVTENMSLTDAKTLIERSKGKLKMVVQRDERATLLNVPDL

| pKd | Binder |
| --- | --- |
| below the threshold | EAVTVESTSL [SLC22A11, Q9NSA0] |

molecular target: T6, MPP2, Q14168; experiment: holdup assay; parameters: key: below the threshold = too weak to quantify, mostly under pKd 3.1 to 4; settings: plain residues with an end cap or a label only (N-terminal biotin on a linker: ado-ado)

| pKd | Binder |
| --- | --- |
| below the threshold | EAVTVESTSL [SLC22A11, Q9NSA0] |

molecular target: Inadl_8, Q8NI35; experiment: holdup assay; parameters: key: below the threshold = too weak to quantify, mostly under pKd 3.1 to 4; settings: plain residues with an end cap or a label only (N-terminal biotin on a linker: ado-ado)
Sequence (Q8NI35 1425-1530): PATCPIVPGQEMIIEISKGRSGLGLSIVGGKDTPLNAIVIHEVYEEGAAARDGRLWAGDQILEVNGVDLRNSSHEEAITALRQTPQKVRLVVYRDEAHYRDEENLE

| pKd | Binder |
| --- | --- |
| below the threshold | EAVTVESTSL [SLC22A11, Q9NSA0] |

molecular target: FRMPD2_3, Q68DX3; experiment: holdup assay; parameters: key: below the threshold = too weak to quantify, mostly under pKd 3.1 to 4; settings: plain residues with an end cap or a label only (N-terminal biotin on a linker: ado-ado)
Sequence (Q68DX3 1073-1166): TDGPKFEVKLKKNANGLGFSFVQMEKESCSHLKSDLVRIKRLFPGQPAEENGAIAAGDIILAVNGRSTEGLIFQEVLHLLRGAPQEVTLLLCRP

| pKd | Binder |
| --- | --- |
| below the threshold | EAVTVESTSL [SLC22A11, Q9NSA0] |

molecular target: IL16_3, Q14005; experiment: holdup assay; parameters: key: below the threshold = too weak to quantify, mostly under pKd 3.1 to 4; settings: plain residues with an end cap or a label only (N-terminal biotin on a linker: ado-ado)
Sequence (Q14005 1107-1207): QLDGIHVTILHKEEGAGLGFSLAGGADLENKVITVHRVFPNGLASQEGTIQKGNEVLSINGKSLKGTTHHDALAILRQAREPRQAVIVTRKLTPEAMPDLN

| pKd | Binder |
| --- | --- |
| below the threshold | EAVTVESTSL [SLC22A11, Q9NSA0] |

molecular target: ARHGEF12, Q9NZN5-2; experiment: holdup assay; parameters: key: below the threshold = too weak to quantify, mostly under pKd 3.1 to 4; settings: plain residues with an end cap or a label only (N-terminal biotin on a linker: ado-ado)
Sequence (Q9NZN5 other isoform, or with tags, fused parts or gaps): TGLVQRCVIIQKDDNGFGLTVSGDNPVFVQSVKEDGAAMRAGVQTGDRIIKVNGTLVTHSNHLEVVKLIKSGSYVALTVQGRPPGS

| pKd | Binder |
| --- | --- |
| 5.17 | EAVTVESTSL [SLC22A11, Q9NSA0] |

molecular target: MAGI3_2, Q5TCQ9; experiment: holdup assay; parameters: key: below the threshold = too weak to quantify, mostly under pKd 3.1 to 4; settings: plain residues with an end cap or a label only (N-terminal biotin on a linker: ado-ado)
Sequence (Q5TCQ9 398-503): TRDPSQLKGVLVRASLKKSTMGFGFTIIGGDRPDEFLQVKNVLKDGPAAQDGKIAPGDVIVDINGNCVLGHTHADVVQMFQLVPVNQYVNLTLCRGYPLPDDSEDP

| pKd | Binder |
| --- | --- |
| below the threshold | EAVTVESTSL [SLC22A11, Q9NSA0] |

molecular target: Inadl_10, Q8NI35; experiment: holdup assay; parameters: key: below the threshold = too weak to quantify, mostly under pKd 3.1 to 4; settings: plain residues with an end cap or a label only (N-terminal biotin on a linker: ado-ado)
Sequence (Q8NI35 1673-1763): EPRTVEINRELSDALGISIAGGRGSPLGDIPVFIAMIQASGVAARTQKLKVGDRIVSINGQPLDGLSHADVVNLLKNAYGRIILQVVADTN

| pKd | Binder |
| --- | --- |
| below the threshold | EAVTVESTSL [SLC22A11, Q9NSA0] |

molecular target: MAGI1_2, Q96QZ7; experiment: holdup assay; parameters: key: below the threshold = too weak to quantify, mostly under pKd 3.1 to 4; settings: plain residues with an end cap or a label only (N-terminal biotin on a linker: ado-ado)
Sequence (Q96QZ7 456-580): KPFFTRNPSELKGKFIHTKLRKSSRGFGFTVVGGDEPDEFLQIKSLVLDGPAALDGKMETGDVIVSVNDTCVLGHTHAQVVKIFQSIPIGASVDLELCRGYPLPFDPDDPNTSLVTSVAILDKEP

| pKd | Binder |
| --- | --- |
| below the threshold | EAVTVESTSL [SLC22A11, Q9NSA0] |

molecular target: Inadl_5, Q8NI35; experiment: holdup assay; parameters: key: below the threshold = too weak to quantify, mostly under pKd 3.1 to 4; settings: plain residues with an end cap or a label only (N-terminal biotin on a linker: ado-ado)
Sequence (Q8NI35 673-780): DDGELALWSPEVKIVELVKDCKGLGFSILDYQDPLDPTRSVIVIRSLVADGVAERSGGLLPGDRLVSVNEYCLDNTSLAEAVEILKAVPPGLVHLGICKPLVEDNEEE

| pKd | Binder |
| --- | --- |
| below the threshold | EAVTVESTSL [SLC22A11, Q9NSA0] |

molecular target: LNX1_3, Q8TBB1; experiment: holdup assay; parameters: key: below the threshold = too weak to quantify, mostly under pKd 3.1 to 4; settings: plain residues with an end cap or a label only (N-terminal biotin on a linker: ado-ado)
Sequence (Q8TBB1 500-596): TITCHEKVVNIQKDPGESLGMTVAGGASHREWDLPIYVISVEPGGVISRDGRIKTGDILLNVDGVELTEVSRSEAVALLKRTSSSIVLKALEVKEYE

| pKd | Binder |
| --- | --- |
| below the threshold | EAVTVESTSL [SLC22A11, Q9NSA0] |

molecular target: Inadl_9, Q8NI35; experiment: holdup assay; parameters: key: below the threshold = too weak to quantify, mostly under pKd 3.1 to 4; settings: plain residues with an end cap or a label only (N-terminal biotin on a linker: ado-ado)
Sequence (Q8NI35 1530-1615): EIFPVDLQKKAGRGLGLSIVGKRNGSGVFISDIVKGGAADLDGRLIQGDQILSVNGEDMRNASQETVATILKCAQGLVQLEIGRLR

| pKd | Binder |
| --- | --- |
| below the threshold | EAVTVESTSL [SLC22A11, Q9NSA0] |

molecular target: T7, GRIP1_7, Q9Y3R0; experiment: holdup assay; parameters: key: below the threshold = too weak to quantify, mostly under pKd 3.1 to 4; settings: plain residues with an end cap or a label only (N-terminal biotin on a linker: ado-ado)

| pKd | Binder |
| --- | --- |
| below the threshold | EAVTVESTSL [SLC22A11, Q9NSA0] |

molecular target: T8, PCLO, Q9Y6V0; experiment: holdup assay; parameters: key: below the threshold = too weak to quantify, mostly under pKd 3.1 to 4; settings: plain residues with an end cap or a label only (N-terminal biotin on a linker: ado-ado)

| pKd | Binder |
| --- | --- |
| below the threshold | EAVTVESTSL [SLC22A11, Q9NSA0] |

molecular target: T9, DFNB31_2, Q9P202; experiment: holdup assay; parameters: key: below the threshold = too weak to quantify, mostly under pKd 3.1 to 4; settings: plain residues with an end cap or a label only (N-terminal biotin on a linker: ado-ado)

| pKd | Binder |
| --- | --- |
| below the threshold | EAVTVESTSL [SLC22A11, Q9NSA0] |

molecular target: TJP2_1, Q9UDY2; experiment: holdup assay; parameters: key: below the threshold = too weak to quantify, mostly under pKd 3.1 to 4; settings: plain residues with an end cap or a label only (N-terminal biotin on a linker: ado-ado)
Sequence (Q9UDY2 24-128): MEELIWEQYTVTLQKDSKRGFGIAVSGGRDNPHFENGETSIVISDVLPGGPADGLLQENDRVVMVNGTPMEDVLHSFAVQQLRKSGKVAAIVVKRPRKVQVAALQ

| pKd | Binder |
| --- | --- |
| below the threshold | EAVTVESTSL [SLC22A11, Q9NSA0] |

molecular target: T10, APBA2_2, Q99767; experiment: holdup assay; parameters: key: below the threshold = too weak to quantify, mostly under pKd 3.1 to 4; settings: plain residues with an end cap or a label only (N-terminal biotin on a linker: ado-ado)

| pKd | Binder |
| --- | --- |
| below the threshold | EAVTVESTSL [SLC22A11, Q9NSA0] |

molecular target: T11, MPDZ_10, O75970; experiment: holdup assay; parameters: key: below the threshold = too weak to quantify, mostly under pKd 3.1 to 4; settings: plain residues with an end cap or a label only (N-terminal biotin on a linker: ado-ado)

| pKd | Binder |
| --- | --- |
| below the threshold | EAVTVESTSL [SLC22A11, Q9NSA0] |

molecular target: T12, RADIL, Q96JH8; experiment: holdup assay; parameters: key: below the threshold = too weak to quantify, mostly under pKd 3.1 to 4; settings: plain residues with an end cap or a label only (N-terminal biotin on a linker: ado-ado)

| pKd | Binder |
| --- | --- |
| below the threshold | EAVTVESTSL [SLC22A11, Q9NSA0] |

From publication PMC9482650, “Quantitative fragmentomics allow affinity mapping of interactomes” (Nature Communications, 2022)
